In article PMC4422724:

Legend:
[1] = target: G146V mutant Dictyostelium actin (Dictyostelium); test: pyrene fluorescence depolymerization assay; 2 μM Mg-actin (20% pyrene-labeled) polymerized overnight at 22°C with 100 mM KCl, 2 mM MgCl2, 0.5 mM ATP; depolymerization induced with 30 μM latrunculin A; double-exponential fit; filament to monomers
[2] = target: G146V mutant Dictyostelium actin (Dictyostelium); test: pyrene fluorescence depolymerization assay; 2 μM Mg-actin (20% pyrene-labeled) polymerized for 12 min at 22°C with 100 mM KCl, 2 mM MgCl2, 0.5 mM ATP; depolymerization induced with 30 μM latrunculin A; double-exponential fit; filament to monomers
[3] = target: G146V mutant Dictyostelium actin (Dictyostelium); test: co-sedimentation; critical concentration by pelleting assay: 0.5-3.0 μM actin polymerized in F-buffer (10 mM HEPES pH 7.4, 2 mM MgCl2, 100 mM KCl, 0.5 mM ATP, 0.5 mM DTT) for 3 hr at 21°C, ultracentrifuged, protein in pellets determined; monomer to filament

τf (depolymerization, fast-depolymerization population) [1]: 27.4 min | τs (depolymerization, slow-depolymerization population) [1]: 98 min | τf (depolymerization, fast-depolymerization population) [2]: 20.1 min | τs (depolymerization, slow-depolymerization population) [2]: 169 min | critical concentration [3]: 0.51 µM
Substance: G146V mutant Dictyostelium actin (natural protein)
